Laboratory results reported in US20200010571A1 (Janssen / Centocor, published 2020).

Tests used:
mouse IL-17A = molecular target: T1, mouse IL-17A (mouse, UniProt Q62386 26-158); test: SPR (Biacore 3000)
T1 sequence: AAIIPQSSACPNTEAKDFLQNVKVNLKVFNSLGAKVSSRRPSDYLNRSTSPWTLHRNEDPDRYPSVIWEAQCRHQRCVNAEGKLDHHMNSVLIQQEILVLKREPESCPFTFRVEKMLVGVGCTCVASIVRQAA
Method: (§1) The experiments were performed using a Biacore 3000 and all experiments were performed in PBS (with 100 μg/mL BSA, and 0.01% P20) at 25° C. The antibodies were captured (75-200 response units) onto the sensor chip surface using an anti-IgG Fcγ antibody (16,000RU). Capture of the parental mAb or bispecific mAb was followed by injection of antigens in solution (4 serial dilutions of antigen). The association was monitored for 3 minutes in all experiments (150 μL injected at 50 μL/min). The dissociation was monitored for 20 minutes to 2 hours depending on the Off-rate. Regeneration of the sensor surface was performed with a 9 second injection of 100 mM H₃PO₄. The collected data were processed and fitted to a 1:1 Langmuir binding model. The result for each mAb was reported in the format of Ka (On-rate), Kd (Off-rate) and KD (equilibrium dissociation constant).
(§2) The experimental procedure was similar to measuring affinity to human antigens.
(§3) The parameters reported were obtained from two independent experiments.

rat IL-17A = molecular target: T2, rat IL-17A (rat, UniProt Q61453 18-150); test: SPR (Biacore 3000)
T2 chain: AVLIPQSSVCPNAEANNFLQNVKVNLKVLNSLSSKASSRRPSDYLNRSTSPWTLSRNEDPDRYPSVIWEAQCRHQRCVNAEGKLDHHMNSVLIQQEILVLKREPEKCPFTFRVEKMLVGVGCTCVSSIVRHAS
Method: as §1, §2, §3

cynomolgus IL-17A = molecular target: T3, cynomolgus IL-17A (cynomolgus, UniProt Q16552 24-155 (human entry), limits assumed); test: SPR (Biacore 3000), mAb captured by anti-IgG Fc, antigen in solution, 1:1 Langmuir;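 also: run in PBS containing BSA and P20 at 25 °C, antigen injected at four dilutions, 3 min association, dissociation followed 20 min to 2 h, two independent experiments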
T3 construct: also called Cyno IL-17A
T3 chain: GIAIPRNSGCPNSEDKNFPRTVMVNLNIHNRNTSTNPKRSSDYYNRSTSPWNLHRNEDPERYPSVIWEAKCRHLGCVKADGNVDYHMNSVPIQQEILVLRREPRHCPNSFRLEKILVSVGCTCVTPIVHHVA
Method: as §1, §2, §3

[1] = molecular target: T4, human IL-17A (recombinant) (human, UniProt Q16552 24-155); test: SPR (Biacore 3000), mAb captured by anti-IgG Fc, antigen in solution, 25 C, 1:1 Langmuir
T4 construct: Biotinylated in the IL-17RA ELISA; also called rhIL-17A
Method: as §1

binding result (mouse IL-17A): binds
binding result (rat IL-17A): binds
Kd (cynomolgus IL-17A): 0.0286 nM
koff (cynomolgus IL-17A): 3.68e-05 s⁻¹
kon (cynomolgus IL-17A): 1.29e+06 M⁻¹ s⁻¹
Kd [1]: 0.0309 nM
koff [1]: 4.79e-05 s⁻¹
kon [1]: 1.55e+06 M⁻¹ s⁻¹
B1: mAb 6785 (original parental anti-IL-17A mAb) (antibody, V domains shown)
VH: QVQLLESGGGLVQPGGSLRLSCAASGFTFSSYAMSWVRQAPGKGLEWVSTISLTSGFTYYADSVKGRFTISRDNSKNTLYLQMNSLRAEDTAVYYCARQLTLDVWGQGTLVTVSS
VL: QSVLTQPPSVSVAPGQTARISCSGDNLGDKYANWYQQKPGQAPVLVIYDDIDRPSGIPERFSGSNSGNTATLTISGTQAEDEADYYCGSYDFFLGMIVFGGGTKLTVL
